The target of assay [1] is T1, VHL (von Hippel-Lindau tumor suppressor protein), full-length (Homo sapiens (Human), UniProt P40337 1-213, 35S-methionine labeled in the in vitro assays).
T1 construct: also called 35S-labeled VHL; 35S-labeled full-length VHL
As to the kind of experiment: co-immunoprecipitation with anti-FLAG, in vitro translated proteins.

In assay [2] the target is T1, VHL (von Hippel-Lindau tumor suppressor …). Description: co-immunoprecipitation with anti-GAL4, in vitro translated proteins.
Assay [3] has as its target 35S-labeled, in vitro translated full length HIF-1 alpha (human, UniProt Q16665 1-826, 35S-methionine labeled). The assay is described as above.

B1: FLAG-tagged mutant N-TAD of HIF-1 alpha (PYI triplet substituted with three aspartic acid residues) (other, not shown: small tags and cut ends)
chain: KLELVEKLFAEDTEAKNPFSTQDTDLDLEMLADDDPMDDDFQLRSFDQLSPLES
notes: also called mt N-TAD; PYI mutant N-TAD
In the case of B1, the binding result in assay [1] is “no binding”.

B2: GAL4/HIF-1 alpha 778-826 (other)
chain: MKLLSSIEQACDICRLKKLKCSKEKPKCAKCLKNNWECRYSPKTKRSPLTRAHLTEVESRLERLEQLFLLIFPREDLDMILKMDSLQDIKALLTGLFVQDNVNKDAVTDRLASVETDMPLTLRQHRISATSSSEESSNKGQRQLTVSLACRLLGQSMDESGLPQLTSYDCEVNAPIQGSRNLLQGEELLRALDQVN
For B2, in assay [2], the binding result is reported as “no binding”.

B3: GAL4/VHL 114-154 fragment (other)
chain: MKLLSSIEQACDICRLKKLKCSKEKPKCAKCLKNNWECRYSPKTKRSPLTRAHLTEVESRLERLEQLFLLIFPREDLDMILKMDSLQDIKALLTGLFVQDNVNKDAVTDRLASVETDMPLTLRQHRISATSSSEESSNKGQRQLTVSGHLWLFRDAGTHDGLLVNQTELFVPSLNVDGQPIFANITLP
With B3, in assay [3], the binding result is listed as “no binding”.

These data come from patent US20020048794A1 (published 2002).
